In the supplement of paper PMC10567573:

B1: TRIM43 (parent)
chain: FCDMDKSLLCLLCSNSQEHGAHKH

Variants of: B1
Assay: protein stability index of a GFP-peptide fusion (GPS, HEK-293T) (PSI 1-6); higher = more stable
Settings: c terminus: a fixed tail appended
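Note: lentivirally expressed fusions sorted by FACS into six bins by GFP to DsRed ratio, PSI derived from sequencing read proportions per bin multiplied by bin number.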

With FSDMDKSLLCLLCSNSQEHGAHKH [C2S] as the variant, how does the protein stability index read?
Its protein stability index is 2.51.

For FCDMDKSLLCLGCSNSQEHGAHKH [L12G], which protein stability index is on record?
The protein stability index was 1.57.

Which protein stability index does the source give for FCDMDKSLLCLMCSNSQEHGAHKH [L12M] here?
The protein stability index was 2.06.

Which protein stability index does the source give for FCDMDKSLLCLYCSNSQEHGAHKH [L12Y] here?
The protein stability index was 1.75.

With FCDMDKSLLCLICSNSQEHGAHKH [L12I] as the variant, how does the protein stability index read?
The protein stability index was 1.78.

Which protein stability index does the source give for FCDMDKSLLCLKCSNSQEHGAHKH [L12K] here?
The protein stability index was 2.12.

Which protein stability index does the source give for FCDMDQSLLCLLCSNSQEHGAHKH [K6Q] here?
Its protein stability index is 2.38.

For FCDMDPSLLCLLCSNSQEHGAHKH [K6P], which protein stability index is on record?
Its protein stability index is 2.12.

For FCDMDKSLLCLLCDNSQEHGAHKH [S14D], which protein stability index is on record?
The protein stability index was 1.72.

For FCDMDKSLLCLLCCNSQEHGAHKH [S14C], which protein stability index is on record?
The protein stability index was 1.88.

Which protein stability index does the source give for FCDMDKSLLCLLCANSQEHGAHKH [S14A] here?
Its protein stability index is 1.87.

For FCDMDKSLLCLLCENSQEHGAHKH [S14E], which protein stability index is on record?
Its protein stability index is 2.02.

With FCDMDKSLLCLLCHNSQEHGAHKH [S14H] as the variant, how does the protein stability index read?
The protein stability index was 1.87.

With FCDMDKSLLCLLCYNSQEHGAHKH [S14Y] as the variant, how does the protein stability index read?
Its protein stability index is 1.82.

Which protein stability index does the source give for FCDMDKSLLCLLCNNSQEHGAHKH [S14N] here?
Its protein stability index is 2.01.

For FCDMDKSLLCLLCRNSQEHGAHKH [S14R], which protein stability index is on record?
Its protein stability index is 2.2.

With FCDMDKSLLCLLCTNSQEHGAHKH [S14T] as the variant, how does the protein stability index read?
Its protein stability index is 2.02.

Which protein stability index does the source give for FCDMDKSLLCLLCPNSQEHGAHKH [S14P] here?
Its protein stability index is 1.98.

With FCDYDKSLLCLLCSNSQEHGAHKH [M4Y] as the variant, how does the protein stability index read?
The protein stability index was 2.07.

Which protein stability index does the source give for FCDPDKSLLCLLCSNSQEHGAHKH [M4P] here?
The protein stability index was 2.

For FCDHDKSLLCLLCSNSQEHGAHKH [M4H], which protein stability index is on record?
Its protein stability index is 3.6.

Which protein stability index does the source give for FCDQDKSLLCLLCSNSQEHGAHKH [M4Q] here?
Its protein stability index is 1.88.

With FCDFDKSLLCLLCSNSQEHGAHKH [M4F] as the variant, how does the protein stability index read?
The protein stability index was 2.04.

For FCDGDKSLLCLLCSNSQEHGAHKH [M4G], which protein stability index is on record?
The protein stability index was 1.96.

Which protein stability index does the source give for FCDMDKSLLCLLCSNSQEHGAHKI [H24I] here?
Its protein stability index is 1.7.

Which protein stability index does the source give for FCDMDKSLLCLLCSNSQEHGAHKM [H24M] here?
The protein stability index was 1.48.

With FCDMDKSLLCLLCSNSQEHGAHKL [H24L] as the variant, how does the protein stability index read?
The protein stability index was 1.53.

With FCDMDKSLLCLLCSNSQEWGAHKH [H19W] as the variant, how does the protein stability index read?
Its protein stability index is 1.51.

For FCDMDKSLLCLLCSNSQENGAHKH [H19N], which protein stability index is on record?
Its protein stability index is 1.75.

For FCDMDKSLLCLLCSNSQEIGAHKH [H19I], which protein stability index is on record?
The protein stability index was 1.87.

With FCDMDKSLLCLLCSNSQEGGAHKH [H19G] as the variant, how does the protein stability index read?
Its protein stability index is 2.18.

For FCDMDKSLLCLLCSNSQESGAHKH [H19S], which protein stability index is on record?
The protein stability index was 2.01.

Which protein stability index does the source give for FCDMAKSLLCLLCSNSQEHGAHKH [D5A] here?
Its protein stability index is 2.67.

Which protein stability index does the source give for FCDMSKSLLCLLCSNSQEHGAHKH [D5S] here?
The protein stability index was 1.79.

With FCHMDKSLLCLLCSNSQEHGAHKH [D3H] as the variant, how does the protein stability index read?
Its protein stability index is 2.35.

For FCMMDKSLLCLLCSNSQEHGAHKH [D3M], which protein stability index is on record?
The protein stability index was 2.54.

With FCPMDKSLLCLLCSNSQEHGAHKH [D3P] as the variant, how does the protein stability index read?
Its protein stability index is 1.67.

For FCRMDKSLLCLLCSNSQEHGAHKH [D3R], which protein stability index is on record?
The protein stability index was 1.99.

With FCGMDKSLLCLLCSNSQEHGAHKH [D3G] as the variant, how does the protein stability index read?
The protein stability index was 1.99.

With FCKMDKSLLCLLCSNSQEHGAHKH [D3K] as the variant, how does the protein stability index read?
The protein stability index was 2.35.

For TCDMDKSLLCLLCSNSQEHGAHKH [F1T], which protein stability index is on record?
Its protein stability index is 3.21.

Which protein stability index does the source give for CCDMDKSLLCLLCSNSQEHGAHKH [F1C] here?
The protein stability index was 3.54.

With QCDMDKSLLCLLCSNSQEHGAHKH [F1Q] as the variant, how does the protein stability index read?
The protein stability index was 3.72.

With GCDMDKSLLCLLCSNSQEHGAHKH [F1G] as the variant, how does the protein stability index read?
The protein stability index was 3.49.

With SCDMDKSLLCLLCSNSQEHGAHKH [F1S] as the variant, how does the protein stability index read?
Its protein stability index is 3.72.

Which protein stability index does the source give for FCDMDKSLLCLLCSNSQSHGAHKH [E18S] here?
Its protein stability index is 1.63.

Which protein stability index does the source give for FCDMDKSLLCLLCSNSQDHGAHKH [E18D] here?
Its protein stability index is 2.11.

Which protein stability index does the source give for FCDMDKSLLCLLCSNSHEHGAHKH [Q17H] here?
Its protein stability index is 1.76.

Which protein stability index does the source give for FCDMDKSLLCLLCSNSGEHGAHKH [Q17G] here?
Its protein stability index is 1.84.

Which protein stability index does the source give for FCDMDKSLLCLLCSNSFEHGAHKH [Q17F] here?
Its protein stability index is 2.05.

With FCDMDKSLLCLLCSNSPEHGAHKH [Q17P] as the variant, how does the protein stability index read?
Its protein stability index is 1.7.

With FCDMDKSLLTLLCSNSQEHGAHKH [C10T] as the variant, how does the protein stability index read?
The protein stability index was 1.72.

Which protein stability index does the source give for FCDMDKSLLVLLCSNSQEHGAHKH [C10V] here?
The protein stability index was 1.86.

For FCDMDKSLLGLLCSNSQEHGAHKH [C10G], which protein stability index is on record?
The protein stability index was 1.64.

Which protein stability index does the source give for FCDMDKSLLLLLCSNSQEHGAHKH [C10L] here?
The protein stability index was 2.14.

With FCDMDKSLLRLLCSNSQEHGAHKH [C10R] as the variant, how does the protein stability index read?
Its protein stability index is 1.7.

Which protein stability index does the source give for FCDMDKSLLCLLCSNSQEHGCHKH [A21C] here?
Its protein stability index is 2.38.

With FCDMDKSLLCLLCSNSQEHGGHKH [A21G] as the variant, how does the protein stability index read?
The protein stability index was 2.26.

For FCDMDKSLLCLLCSNSQEHGFHKH [A21F], which protein stability index is on record?
The protein stability index was 2.1.

Which protein stability index does the source give for FCDMDKSLLCLLCSNSQEHGRHKH [A21R] here?
Its protein stability index is 2.16.

Which protein stability index does the source give for FCDMDKSLLCLLCSNSQEHGKHKH [A21K] here?
Its protein stability index is 1.98.

Which protein stability index does the source give for FCDMDKSWLCLLCSNSQEHGAHKH [L8W] here?
The protein stability index was 2.3.

Which protein stability index does the source give for FCDMDKSLLCLLCSNGQEHGAHKH [S16G] here?
The protein stability index was 2.22.

Which protein stability index does the source give for FCDMDKSLLCLLCSNWQEHGAHKH [S16W] here?
Its protein stability index is 1.75.

With FCDMDKSLLCLLCSNMQEHGAHKH [S16M] as the variant, how does the protein stability index read?
The protein stability index was 2.3.

Which protein stability index does the source give for FCDMDKSLLCLLCSNDQEHGAHKH [S16D] here?
The protein stability index was 1.97.

With FCDMDKSLLCLLCSNTQEHGAHKH [S16T] as the variant, how does the protein stability index read?
The protein stability index was 2.07.

Which protein stability index does the source give for FCDMDKSLLCLLCSNRQEHGAHKH [S16R] here?
The protein stability index was 2.12.

With FCDMDKSLLCLLCSDSQEHGAHKH [N15D] as the variant, how does the protein stability index read?
Its protein stability index is 2.26.

For FCDMDKSLLCLLCSQSQEHGAHKH [N15Q], which protein stability index is on record?
The protein stability index was 1.87.

With FCDMDKSLLCLLCSKSQEHGAHKH [N15K] as the variant, how does the protein stability index read?
The protein stability index was 2.26.

For FCDMDKSLLCLLCSMSQEHGAHKH [N15M], which protein stability index is on record?
Its protein stability index is 1.66.

Which protein stability index does the source give for FCDMDKSLLCLLCSESQEHGAHKH [N15E] here?
The protein stability index was 1.92.

Which protein stability index does the source give for FCDMDKRLLCLLCSNSQEHGAHKH [S7R] here?
The protein stability index was 1.65.

For FCDMDKFLLCLLCSNSQEHGAHKH [S7F], which protein stability index is on record?
Its protein stability index is 2.72.

With FCDMDKLLLCLLCSNSQEHGAHKH [S7L] as the variant, how does the protein stability index read?
Its protein stability index is 1.93.

Which protein stability index does the source give for FCDMDKSLLCLLCSNSQEHGAFKH [H22F] here?
Its protein stability index is 2.17.

With FCDMDKSLLCLLCSNSQEHGAHDH [K23D] as the variant, how does the protein stability index read?
Its protein stability index is 2.4.

For FCDMDKSLLCLLCSNSQEHGAHNH [K23N], which protein stability index is on record?
Its protein stability index is 1.89.

Which protein stability index does the source give for FCDMDKSLLCLLCSNSQEHGAHSH [K23S] here?
The protein stability index was 2.25.

For FCDMDKSLLCLLCSNSQEHGAHEH [K23E], which protein stability index is on record?
Its protein stability index is 2.05.

For FCDMDKSLLCLLCSNSQEHGAHCH [K23C], which protein stability index is on record?
Its protein stability index is 1.82.

With FCDMDKSLLCLLCSNSQEHGAHPH [K23P] as the variant, how does the protein stability index read?
Its protein stability index is 2.06.

With FCDMDKSLLCLLCSNSQEHVAHKH [G20V] as the variant, how does the protein stability index read?
The protein stability index was 2.35.

Which protein stability index does the source give for FCDMDKSLLCLLCSNSQEHYAHKH [G20Y] here?
The protein stability index was 2.28.

Which protein stability index does the source give for FCDMDKSLLCLLCSNSQEHQAHKH [G20Q] here?
The protein stability index was 1.95.

Which protein stability index does the source give for FCDMDKSLLCLLCSNSQEHKAHKH [G20K] here?
Its protein stability index is 1.93.

With FCDMDKSLLCCLCSNSQEHGAHKH [L11C] as the variant, how does the protein stability index read?
Its protein stability index is 1.44.

For FCDMDKSLLCWLCSNSQEHGAHKH [L11W], which protein stability index is on record?
The protein stability index was 2.79.

Which protein stability index does the source give for FCDMDKSLLCVLCSNSQEHGAHKH [L11V] here?
The protein stability index was 1.63.

With FCDMDKSLGCLLCSNSQEHGAHKH [L9G] as the variant, how does the protein stability index read?
Its protein stability index is 1.64.

With FCDMDKSLMCLLCSNSQEHGAHKH [L9M] as the variant, how does the protein stability index read?
The protein stability index was 1.92.

For FCDMDKSLQCLLCSNSQEHGAHKH [L9Q], which protein stability index is on record?
Its protein stability index is 2.68.

Which protein stability index does the source give for FCDMDKSLCCLLCSNSQEHGAHKH [L9C] here?
Its protein stability index is 2.36.
